Test results: patent publication US20080187543A1

Target: Recombinant myostatin
Assay: cell-based or functional assay

## 350 protein (amino acids 267-350 of bovine myostatin) (from UniProt O18836 267-350)
  macrophage migration towards ZAMS medium (Boyden-type chemotaxis chamber), 5 µg/ml myostatin with 350 protein at 10 and 25 µg/ml: 20 fold
